From publication PMC4730607, “DNA-binding sequence specificity of DUX4”

B1: SELEX2 (dsDNA)
DNA 1: GGCAGTCTAATTCAATCCAGTCGGC
DNA 2: GCCGACTGGATTGAATTAGACTGCC
B2: MALR (dsDNA)
DNA 1: GGCAGTCTAATTGAATCAAGTCGGC
DNA 2: GCCGACTTGATTCAATTAGACTGCC
B3: DUX4(half) (dsDNA)
DNA 1: GGCAGTCCAGCGTAATCAAGTCGGC
DNA 2: GCCGACTTGATTACGCTGGACTGCC
B4: SELEX4 (dsDNA)
DNA 1: GGCAGTCTAATGTTTTATAGTCGGC
DNA 2: GCCGACTATAAAACATTAGACTGCC
B5: Pitx1-25 (dsDNA)
DNA 1: GGCAGTCTTCTAATTAGTAGTCGGC
DNA 2: GCCGACTACTAATTAGAAGACTGCC
B6: DUX4(TT) (dsDNA)
DNA 1: GGCAGTCTAATTTAATCAAGTCGGC
DNA 2: GCCGACTTGATTAAATTAGACTGCC
B7: DUX4(mut) (dsDNA)
DNA 1: GGCAGTCGTGAATAATCAAGTCGGC
DNA 2: GCCGACTTGATTATTCACGACTGCC
B8: DUX4(TC) (dsDNA)
DNA 1: GGCAGTCTAATTCAATCAAGTCGGC
DNA 2: GCCGACTTGATTGAATTAGACTGCC
B9: DUX4(CC) (dsDNA)
DNA 1: GGCAGTCTAATCCAATCAAGTCGGC
DNA 2: GCCGACTTGATTGGATTAGACTGCC

Each binder was assayed against T1, DUX4 DNA-binding domain (DUX4-HD, both homeodomains) (UniProt Q9UBX2 19-152) (assay: competition; vs FAM-CT; CT competed best; Direct EMSA: 10 uL 100 uM probe + 20 uL 250 uM protein (protein stock in 500 mM NaCl, 20 mM Tris-Cl pH 7.4), 1 h on ice, 3% agarose, EtBr; competition: 10 uL 100 uM competitor, 2 uL 125 uM protein (50% glycerol, 250 mM NaCl, 10 mM Tris-Cl pH 7.4), 2 uL 100 uM FAM-CT, 30 uL total, 1 h on ice). Conditions: protein: recombinant; tags: N-terminal His6 removed by TEV (first construct); His-SUMO fusion (later construct); blunt.
T1 sequence (Q9UBX2 19-152): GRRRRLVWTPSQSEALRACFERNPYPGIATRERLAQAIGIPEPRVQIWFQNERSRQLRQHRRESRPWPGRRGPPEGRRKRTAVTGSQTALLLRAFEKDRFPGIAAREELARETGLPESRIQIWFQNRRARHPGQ

| Binder | binding result |
| --- | --- |
| B1 | binds |

These binders were tested against T1, DUX4 DNA-binding domain (DUX4-HD, both …) (assay: EMSA; excess protein; Direct EMSA: 10 uL 100 uM probe + 20 uL 250 uM protein (protein stock in 500 mM NaCl, 20 mM Tris-Cl pH 7.4), 1 h on ice, 3% agarose, EtBr; competition: 10 uL 100 uM competitor, 2 uL 125 uM protein (50% glycerol, 250 mM NaCl, 10 mM Tris-Cl pH 7.4), 2 uL 100 uM FAM-CT, 30 uL total, 1 h on ice). Conditions: protein: recombinant; tags: N-terminal His6 removed by TEV (first construct); His-SUMO fusion (later construct); blunt.

| Binder | binding result |
| --- | --- |
| B2 | binds |
| B3 | no binding |
| B4 | no binding |
| B5 | no binding |

These binders were tested against T1, DUX4 DNA-binding domain (DUX4-HD, both …) (assay: competition; vs FAM-CT; Direct EMSA: 10 uL 100 uM probe + 20 uL 250 uM protein (protein stock in 500 mM NaCl, 20 mM Tris-Cl pH 7.4), 1 h on ice, 3% agarose, EtBr; competition: 10 uL 100 uM competitor, 2 uL 125 uM protein (50% glycerol, 250 mM NaCl, 10 mM Tris-Cl pH 7.4), 2 uL 100 uM FAM-CT, 30 uL total, 1 h on ice). Conditions: protein: recombinant; tags: N-terminal His6 removed by TEV (first construct); His-SUMO fusion (later construct); blunt.

| Binder | binding result |
| --- | --- |
| B6 | binds |
| B7 | no binding |
| B8 | binds |
| B9 | binds |
